Data on 1 protein can be found in PMC3215729, “Rv2607 from Mycobacterium tuberculosis Is a Pyridoxine 5′-Phosphate Oxidase with Unusual Substrate Specificity” (PLoS ONE, 2011).

As a reminder, the stoichiometry N is the number of molecules, sites or subunits per partner or assembly.

This data set concerns the molecule itself. Description: native MS.

B1: Rv2607 from Mycobacterium tuberculosis H37Rv, amino-terminal 6x-histidine tag fusion protein (enzyme)
chain: MDDDAQMVAIDKDQLARMRGEYGPEKDGCGDLDFDWLDDGWLTLLRRWLNDAQRAGVSEPNAMVLATVADGKPVTRSVLCKILDESGVAFFTSYTSAKGEQLAVTPYASATFPWYQLGRQAHVQGPVSKVSTEEIFTYWSMRPRGAQLGAWASQQSRPVGSRAQLDNQLAEVTRRFADQDQIPVPPGWGGYRIAPEIVEFWQGRENRMHNRIRVANGRLERLQP
notes: also called PNPOx; pyridoxine 5'-phosphate oxidase; not shown: His6, N-terminal, kept
Turning to B1, the “stoichiometry N” value worked out at 2.
